Measurements: US20020025558A1

Target: human MADr3 (human)
Assay: cell-based or functional assay

Question: For TGF-β receptor, which signal to noise ratio of 33P phosphorylation at 0.01 units of TGF-β receptor, MADr3 coated at 750 ng/well is on record?
Answer: Its signal to noise ratio of 33P phosphorylation at 0.01 units of TGF-β receptor, MADr3 coated at 750 ng/well is 50.

Question: What about the signal to noise ratio of 33P phosphorylation on MADr3-coated FlashPlate of the same substance?
Answer: The signal to noise ratio of 33P phosphorylation on MADr3-coated FlashPlate was over 10.
